The supplement of paper PMC10567573
± gives the standard deviation.

Experiment: protein stability index of a GFP-peptide fusion (GPS, HEK-293T) (PSI 1-6); higher = more stable
Conditions: c terminus: a fixed tail appended
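Further: 24-mer peptide tiles fused after GFP, lentivirally expressed, FACS-sorted into six equal bins by GFP/DsRed ratio, decoded by Illumina sequencing, PSI is the read-weighted mean bin number.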

Row | Sequence | protein stability index (treatment: DMSO) | protein stability index (treatment: MLN4924 1 uM, 8 h)
1 | VLSLLSLEPAQRPPLSHIMAQPLC [NEK8] | 2.17 ± 0.15 | 2.3 ± 0.099
2 | VNAVLTQIDQIKRHSNVVILTTSN [TRIP13] | 1.92 ± 0.46 | 1.95 ± 0.24
3 | VPQPARMPYISDKHPRQTLEVINL [KLHL20] | 2.88 ± 0.2 | 3.2 ± 0.31
4 | VQYLQHLGTENLHLIFSYSVWVLR [VPS39] | 3.23 ± 0.39 | 2.96 ± 0.41
5 | VRGLYDFYLPREELWIYNMETGRW [KLHDC2] | 2.57 ± 0.39 | 2.24 ± 0.48
6 | VRLQSIHTMRKISNNITLREDQLD [INTS4] | 3.2 ± 0.055 | 3.3 ± 0.36
7 | VRSGAWHFSFNVKFYPPDPAQLSE [EPB41L3] | 1.98 ± 0.61 | 2.53 ± 0.18
8 | VRSIQPEEKERIGQFVFARDAKAA [AASDHPPT] | 4.13 ± 0.31 | 4.39 ± 0.27
9 | VRTTRGKRKRVDVEESEASSSVSI [LMNB1] | 5.13 ± 0.17 | 5.09 ± 0.44
10 | VSRGGHGQQDLFRVLKAYTLYRPE [TBC1D10A] | 2.06 ± 0.17 | 2.12 ± 0.36
11 | VSSLISEKTNGATPLLMAARYGHL [FEM1C] | 2.28 ± 0.17 | 2.52 ± 0.28
12 | VSSVTQVEVDENAYRCGSGMQMAE [NET1] | 4.2 ± 0.3 | 4.42 ± 0.11
13 | VTASPPTDLIWKNQNSWGTGEDVK [LMNB1] | 4.36 ± 0.26 | 4.37 ± 0.24
14 | VVCQPNEFIMPDSAVVGDVLVLTK [SEPHS2] | 2.35 ± 0.19 | 2.56 ± 0.36
15 | VVCVLLNLAGFILGCQGAQFVSSV [FAM189A2] | 3.35 ± 0.99 | 2.21 ± 0.42
16 | VVEATHMCMVMRGVQKMNSKTVTS [GCH1] | 2.82 ± 0.31 | 3 ± 0.45
17 | VVPARLKRASAPTFDNDYSLSELL [RIPK4] | 2.69 ± 0.17 | 2.8 ± 0.42
18 | VVRICCIRSFGHFIARLQGSILQF [SMG5] | 2.57 ± 0.37 | 2.66 ± 0.57
19 | WCDGCKNHIGMGVRYNAEKKKVGN [YJU2B] | 3.67 ± 0.34 | 3.65 ± 0.32

Row | Sequence | protein stability index (treatment: DMSO) | protein stability index (treatment: MLN4924 1 uM, 8 h)
20 | WDPHNGDILMEFGHLFPPPTPIFA [WSB1] | 2.38 ± 0.31 | 2.21 ± 0.27
21 | WLSDWVTSYKVMVSNDSHTWVTVK [CPXM2] | 2.67 ± 1.5 | 2.56 ± 0.2
22 | WMIEEKATITSRGSSLSGSLCSLL [LURAP1L] | 2.28 ± 0.17 | 2.47 ± 0.2
23 | WMKHNVADSQITTIGNLVPQKTYS [PTPRD] | 3.29 ± 0.55 | 3.17 ± 0.29
24 | WQRGLNTPEDSDPDHFDTAILFTR [ADAMTS4] | 3.54 ± 0.25 | 3.5 ± 0.46
25 | WQRQMDQPQDRNQALGTHRPVNKL [RASAL3] | 4.39 ± 0.35 | 4.49 ± 0.14
26 | WWNHMHFQHHAKPNCFRKDPDINM [FADS1] | 2.17 ± 0.42 | 2.26 ± 0.49
27 | YCFCGWIVLGPYHVKFRSLSMVSE [MCOLN1] | 2.85 ± 1.1 | 3.1 ± 1.3
28 | YCKPTRLDLLLDMPPVSYDVQLLH [SPSB1] | 2.2 ± 0.23 | 2.14 ± 0.33
29 | YDVAMNRAKDLVELDPEVEGTKPS [GOLPH3L] | 5.54 ± 0.2 | 5.603 ± 0.052
30 | YDVKYLMKSCKNLKGGLQEVAEQL [CNOT7] | 2.61 ± 0.43 | 2.98 ± 0.33
31 | YECGVCAKKFMWRDSFMRHRGHCE [ZBTB22] | 5 ± 0.16 | 4.99 ± 0.17
32 | YEKTPFDQLAFIEELFSLMVVNRL [EID1] | 2.68 ± 0.36 | 3.01 ± 0.43
33 | YFSLYCLHQETQLIHVYLPLTSHI [SNX8] | 2.95 ± 0.35 | 2.78 ± 0.32
34 | YFYDPIERDIEIGFLPWLMNEVEK [RSPH3] | 2.04 ± 0.74 | 2.42 ± 0.25
35 | YGHELLINTLITSGADTAKCGIHS [ANKRD44] | 2.27 ± 0.38 | 1.99 ± 0.2
36 | YHINSISVNSDCETYMSADDLRIN [PPP2R2C] | 2.89 ± 0.44 | 3.2 ± 0.29
37 | YIGFYGKETTNTCILKCNLCSVNI [PDS5B] | 2.98 ± 1.6 | 2.96 ± 1
38 | YIMTRDYLTVKVWDLNMENRPIET [PPP2R2B] | 2.16 ± 0.5 | 2.45 ± 0.26

Row | Sequence | protein stability index (treatment: DMSO) | protein stability index (treatment: MLN4924 1 uM, 8 h)
39 | YLILALLSVTISFRIYKSVIQAVQ [RTN3] | 3.42 ± 0.42 | 2.99 ± 0.48
40 | YLPKNTHPFLYLSLEISPQNVDVN [MLH1] | 3.23 ± 1.1 | 2.09 ± 0.3
41 | YLVQGLVEECQAALQNKDTYEPFC [KCTD10] | 2.32 ± 0.46 | 2.65 ± 0.24
42 | YMLFDPKDSVMQQNLVYYRFHRAR [P3H4] | 2.26 ± 0.25 | 2.27 ± 0.53
43 | YMNFRVKACNKAVAGEFSEPVTLE [FSD1] | 3.03 ± 0.29 | 2.93 ± 0.46
44 | YNIKLKWTNQQKLYSRTGDIVEFV [CFHR2] |  | 2.46 ± 0.41
45 | YPTTLGKDRECQSQSLALKEQNNL [ZNF8] | 4.39 ± 0.16 | 4.52 ± 0.19
46 | YQEIFQQLQRSWVKMDQKSKHLKE [TRIM43] | 2.41 ± 0.32 | 2.6 ± 0.32
47 | YQLPQMPDVVVRSFMTWLRSYIKL [MED27] | 2.01 ± 0.13 | 2.25 ± 0.21
48 | YRPLKQELQGLDYCKPTRLDLLLD [SPSB1] | 2.77 ± 0.29 | 2.6 ± 0.32
49 | YSLTTSSTHKSSLCKVEIVCPPQS [RAB40A] | 2.64 ± 0.19 | 2.64 ± 0.12
50 | YSQDPVYANGGLNYSYRGYGALSS [NOL4L] | 2.4 ± 0.23 | 2.71 ± 0.2
51 | YSRGYRNRRSSRETREYAPPSRGH [RBMY1A1] | 4.38 ± 0.27 | 4.76 ± 0.23
52 | YTSSQKVSPIQIDGAGRTWQDSDT [TOR1AIP2] | 3.62 ± 0.36 | 4.2 ± 0.51
53 | YVIGGRNETGYLSSVECYNLETNE [KLHL14] | 2.66 ± 0.31 | 3.02 ± 0.59
54 | YVKPQSCIDIVIRHVAPIPSHYDV [MOSPD3] | 2.97 ± 0.74 | 2.74 ± 0.85
55 | YYHRRNEMTTTDDLDFKHHNYKEM [CPXM2] | 3.22 ± 0.33 | 3.35 ± 0.25
56 | YYLRKGKKINSNQLENEQSQENSI [SPANXN3] | 4.47 ± 0.23 | 4.23 ± 0.27
57 | YYNVVLLRYQFSRPGPQSVPLQLS [FCHO1] | 3.13 ± 0.43 | 2.91 ± 0.53
